From publication PMC5613346 (Biochemistry and Biophysics Reports, 2016)

Columns and labels:
[1] = biological target: T1, mouse wtTNF (mouse), P06804; assay: SEC; conditions: remark: other sources report otherwise
T1 chain: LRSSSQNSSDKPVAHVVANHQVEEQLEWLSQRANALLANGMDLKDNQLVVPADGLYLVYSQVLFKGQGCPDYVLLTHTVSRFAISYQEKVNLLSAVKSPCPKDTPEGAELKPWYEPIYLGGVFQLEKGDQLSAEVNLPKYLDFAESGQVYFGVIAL

mTNFR2 Fc chimera = biological target: T2, mTNFR2 Fc chimera (mouse, UniProt P25119); assay: SPR
T2 sequence: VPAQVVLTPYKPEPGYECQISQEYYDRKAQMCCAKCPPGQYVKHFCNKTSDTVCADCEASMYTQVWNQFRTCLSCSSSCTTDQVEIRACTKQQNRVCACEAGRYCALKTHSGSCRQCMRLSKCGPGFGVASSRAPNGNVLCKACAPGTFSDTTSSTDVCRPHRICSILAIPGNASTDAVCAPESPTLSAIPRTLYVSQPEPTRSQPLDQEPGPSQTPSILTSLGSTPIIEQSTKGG

mTNFR1 Fc chimera = biological target: T3, mTNFR1 Fc chimera (mouse, UniProt P25118); assay: SPR
T3 sequence: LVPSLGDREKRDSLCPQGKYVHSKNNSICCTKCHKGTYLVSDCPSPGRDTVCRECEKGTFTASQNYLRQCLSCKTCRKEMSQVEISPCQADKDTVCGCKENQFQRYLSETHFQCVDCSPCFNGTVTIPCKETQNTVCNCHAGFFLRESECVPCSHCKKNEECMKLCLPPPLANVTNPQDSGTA

B1: mouse wtTNF (ligand)
chain: LRSSSQNSSDKPVAHVVANHQVEEQLEWLSQRANALLANGMDLKDNQLVVPADGLYLVYSQVLFKGQGCPDYVLLTHTVSRFAISYQEKVNLLSAVKSPCPKDTPEGAELKPWYEPIYLGGVFQLEKGDQLSAEVNLPKYLDFAESGQVYFGVIAL
stoichiometry N [1]: 3
Kd (mTNFR2 Fc chimera): 10.4 nM
koff (mTNFR2 Fc chimera): 0.0056 s⁻¹
kon (mTNFR2 Fc chimera): 537000 M⁻¹ s⁻¹
Kd (mTNFR1 Fc chimera): 5.84 nM
koff (mTNFR1 Fc chimera): 0.000969 s⁻¹
kon (mTNFR1 Fc chimera): 166000 M⁻¹ s⁻¹
